The target of this assay is JRFL SOSIP trimer (HIV-1 subtype B, truncated at residue 663), negatively selected (HIV-1 subtype B strain JRFL).

B1: PGV04 Fab (Fab, V domains shown)
VH: QVQLVQSGSGVKKPGASVRVSCWTSEDIFERTELIHWVRQAPGQGLEWIGWVKTVTGAVNFGSPDFRQRVSLTRDRDLFTAHMDIRGLTQGDTATYFCARQKFYTGGQGWYFDLWGRGTLIVVSS
VL: EIVLTQSPGTLSLSPGETASLSCTAASYGHMTWYQKKPGQPPKLLIFATSKRASGIPDRFSGSQFGKQYTLTITRMEPEDFARYYCQQLEFFGQGTRLEIR
B1 returned an increase of the melting temperature (Tm) of the JRFL SOSIP-Fab complex over the trimer alone, DSF of 3.6 °C.

Source of the values: paper PMC4287557.
